Measurements from patent US20250002588A1 (DIAGONAL THERAPEUTICS, published 2025).

T1: human BMPRII protein (Sino Biological, #10551-H08H) (human, UniProt Q13873 27-150)
T1 sequence (looked up): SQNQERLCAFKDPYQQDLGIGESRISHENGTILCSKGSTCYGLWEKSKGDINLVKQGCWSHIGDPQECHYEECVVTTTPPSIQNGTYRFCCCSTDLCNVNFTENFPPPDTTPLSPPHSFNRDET


Tests used:
[1] = biological target: human ALK1 protein (Sino Biological, #10066-H08H) (human, UniProt P37023 22-118); experiment: ELISA, coated human ALK1
Outline: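 Antibody binding is read as A450 via TMB after anti-human IgG Fc–HRP secondary (2 μg/ml, 1 h, room temperature). Antibodies, diluted in PBS/0.1% BSA, were incubated 1 h at room temperature on wells coated overnight at 4 °C with 2 μg/ml BMPRII or ALK1.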

[2] = biological target: T1, human BMPRII protein (Sino Biological, …); experiment: ELISA, coated human BMPRII
Procedure: These binders were then tested using an ELISA assay. High binding plates (Corning, 9018) were coated with either 2 μg/ml of human BMPRII protein (Sino Biological, #10551-H08H) or 2 μg/ml of human ALK1 protein (Sino Biological, #10066-H08H) overnight at 4C. The plates were then washed three times with wash buffer (R&D Systems, WA126). […] The plates were then washed three times with wash buffer and DGL antibodies or controls, which were diluted with PBS and 0.1% BSA. The antibodies were incubated for one hour at room temperature and then the plates were washed three times with wash buffer. The plates were then incubated with mouse anti-human IgG Fc secondary—HRP (diluted with PBS/0.1% BSA); 100 ul per well at 2 μg/ml and incubated at room temperature for one hour. The plate was washed three times in wash buffer and then 100 ul TMB (R&D Systems, DY9998B, substrate reagent pack). After the wells turn blue, 50 ul of stop solution (R&D Systems, DY994) was added to each well and the absorbance of the plate was read at 450 nm. results can be found in Table 8.

[3] = biological target: ALK-1/BMPR-2 receptor pair of the PathHunter U2Os dimerization cells (DiscoverX 93-0962C3) (UniProt P37023 22-503; Q13873 27-1038); experiment: cell-based or functional assay
ALK-1/BMPR-2 receptor pair of the PathHunter U2Os dimerization cells (DiscoverX 93-0962C3), sequence (P37023 22-503, one chain of several): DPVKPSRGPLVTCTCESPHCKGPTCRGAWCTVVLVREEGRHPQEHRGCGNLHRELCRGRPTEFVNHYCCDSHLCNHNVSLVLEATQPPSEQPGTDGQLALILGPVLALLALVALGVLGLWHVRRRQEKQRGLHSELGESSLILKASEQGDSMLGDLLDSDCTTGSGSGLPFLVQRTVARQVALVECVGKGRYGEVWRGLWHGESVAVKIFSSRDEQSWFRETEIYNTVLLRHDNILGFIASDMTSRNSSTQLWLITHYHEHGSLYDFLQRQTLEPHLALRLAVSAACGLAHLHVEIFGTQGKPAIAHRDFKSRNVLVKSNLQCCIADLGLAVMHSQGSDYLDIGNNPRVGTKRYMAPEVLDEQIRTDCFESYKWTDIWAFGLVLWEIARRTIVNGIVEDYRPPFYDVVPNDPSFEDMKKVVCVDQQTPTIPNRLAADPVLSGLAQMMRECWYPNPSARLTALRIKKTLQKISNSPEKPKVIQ

human ALK1 protein (Sino Biological, #10066-H08H), sequence (P37023 22-118 limits assumed): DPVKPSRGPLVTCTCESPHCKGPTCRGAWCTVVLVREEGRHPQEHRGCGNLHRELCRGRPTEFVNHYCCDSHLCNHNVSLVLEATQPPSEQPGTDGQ

| Abs450 1 nM [1] | Abs450 10 nM [1] | Abs450 100 nM [1] | Abs450 1 nM [2] | Abs450 10 nM [2] | Abs450 100 nM [2] | % Emax BMP9 [3] | Emax (RLU) [3] | Binder |
| --- | --- | --- | --- | --- | --- | --- | --- | --- |
| 0.09 | 0.29 | 1.17 | 0.15 | 0.33 | 1.17 | 141% | 2.61e+06 RLU | DGL635 (bispecific antibody) chain 1: EVQLLESGGGLVQPGGSLRLSCAASGFTFSDYYMTWIRQAPGKGLEWVSSISGGSTYYADSRKGRFTISRDNSENTLYLQMNSLRAEDTAVYYCARDFGVAGWFGQYGMDVWGQGTLVTVSSGGGGSGGGGSGGGGSQSVLTQPPSASGTPGQRVTISCTGSSSNIGAGYDVHWYQQLPGTAPKLLIYRSNQRPSGVPDRFSGSKSGTSASLAISGLRSEDEADYYCSSYAGNYNLVFGGGTKLTVLDKTHTCPPCPAPEAAGAPSVFLFPPKPKDTLMISRTPEVTCVVVDVSHEDPEVKFNWYVDGVEVHNAKTKPREEQYNSTYRVVSVLTVLHQDWLNGKEYKCKVSNKALPAPIEKTISKAKGQPREPQVCTLPPSRDELTKNQVSLSCAVKGFYPSDIAVEWESNGQPENNYKTTPPVLDSDGSFFLVSKLTVDKSRWQQGNVFSCSVMHEALHNHYTQKSLSLSPGWSHPQFEK chain 2: not shown |
| 0.07 | 0.15 | 0.83 | 0.33 | 0.43 | 0.9 | 76% | 1.41e+06 RLU | DGL641 (bispecific antibody) chain 1: EVQLLESGGGLVQPGGSLRLSCAASGFTFSNAWMNWVRQAPGKGLEWVSSISSSSSYIYYADSVKGRFTISRDNSKNTLYLQMNSLRAEDTAVYYCARAVAAGGMFWGLDQWGQGTLVTVTSSGGGGSGGGGSGGGGSQSVLTQPPSASGTPGQRVTISCSGSRSNIGSNSVHWYQQLPGTAPKLLIYGNSNRPSGVPDRFSGSKSGTSASLAISGLRSEDEADYYCQSYDSSLNDHVVFGGGTKLTVLDKTHTCPPCPAPEAAGAPSVFLFPPKPKDTLMISRTPEVTCVVVDVSHEDPEVKFNWYVDGVEVHNAKTKPREEQYNSTYRVVSVLTVLHQDWLNGKEYKCKVSNKALPAPIEKTISKAKGQPREPQVCTLPPSRDELTKNQVSLSCAVKGFYPSDIAVEWESNGQPENNYKTTPPVLDSDGSFFLVSKLTVDKSRWQQGNVFSCSVMHEALHNHYTQKSLSLSPGWSHPQFEK chain 2: not shown |
| 0.07 | 0.13 | 0.59 | 0.23 | 0.21 | 0.16 | 19% | 353000 RLU | DGL645 (bispecific antibody) chain 1: EVQLLESGGGLVQPGGSLRLSCAASGFTFSNAWMNWVRQAPGKGLEWVSSISSSSSYIYYADSVKGRFTISRDNSKNTLYLQMNSLRAEDTAVYYCARAVAGTSMWYGLDQWGQGTLVTVTSSGGGGSGGGGSGGGGSQSVLTQPPSASGTPGQRVTISCSGSRSNIGSNSVHWYQQLPGTAPKLLIYGNSNRPSGVPDRFSGSKSGTSASLAISGLRSEDEADYYCQSYDSSLNDHVVFGGGTKLTVLDKTHTCPPCPAPEAAGAPSVFLFPPKPKDTLMISRTPEVTCVVVDVSHEDPEVKFNWYVDGVEVHNAKTKPREEQYNSTYRVVSVLTVLHQDWLNGKEYKCKVSNKALPAPIEKTISKAKGQPREPQVCTLPPSRDELTKNQVSLSCAVKGFYPSDIAVEWESNGQPENNYKTTPPVLDSDGSFFLVSKLTVDKSRWQQGNVFSCSVMHEALHNHYTQKSLSLSPGWSHPQFEK chain 2: not shown |
| 0.06 | 0.1 | 0.54 | 0.23 | 0.2 | 0.17 | 8% | 153000 RLU | DGL644 (bispecific antibody) chain 1: EVQLLESGGGLVQPGGSLRLSCAASGFTFSNAWMNWVRQAPGKGLEWVSSISSSSSYIYYADSVKGRFTISRDNSKNTLYLQMNSLRAEDTAVYYCARSNGSGGSTSPLDLWGQGTLVTVTSSGGGGSGGGGSGGGGSQSVLTQPPSASGTPGQRVTISCSGSRSNIGSNSVHWYQQLPGTAPKLLIYGNSNRPSGVPDRFSGSKSGTSASLAISGLRSEDEADYYCQSYDSSLNDHVVFGGGTKLTVLDKTHTCPPCPAPEAAGAPSVFLFPPKPKDTLMISRTPEVTCVVVDVSHEDPEVKFNWYVDGVEVHNAKTKPREEQYNSTYRVVSVLTVLHQDWLNGKEYKCKVSNKALPAPIEKTISKAKGQPREPQVCTLPPSRDELTKNQVSLSCAVKGFYPSDIAVEWESNGQPENNYKTTPPVLDSDGSFFLVSKLTVDKSRWQQGNVFSCSVMHEALHNHYTQKSLSLSPGWSHPQFEK chain 2: not shown |
| 0.07 | 0.18 | 0.81 | 0.3 | 0.32 | 0.76 | 35% | 648000 RLU | DGL649 (bispecific antibody) chain 1: EVQLLESGGGLVQPGGSLRLSCAASGFTFSLAWMNWVRQAPGKGLEWVSSISSSTSYIYYADSVKGRFTISRDNSKNTLYLQMNSLRAEDTAVYYCARAVAAGGMFWGLDQWGQGTLVTVTSSGGGGSGGGGSGGGGSQSVLTQPPSASGTPGQRVTISCSGSRSNIGSNSVHWYQQLPGTAPKLLIYGNSNRPSGVPDRFSGSKSGTSASLAISGLRSEDEADYYCQSYDSSLNDHVVFGGGTKLTVLDKTHTCPPCPAPEAAGAPSVFLFPPKPKDTLMISRTPEVTCVVVDVSHEDPEVKFNWYVDGVEVHNAKTKPREEQYNSTYRVVSVLTVLHQDWLNGKEYKCKVSNKALPAPIEKTISKAKGQPREPQVCTLPPSRDELTKNQVSLSCAVKGFYPSDIAVEWESNGQPENNYKTTPPVLDSDGSFFLVSKLTVDKSRWQQGNVFSCSVMHEALHNHYTQKSLSLSPGWSHPQFEK chain 2: not shown |
| 0.07 | 0.16 | 0.84 | 0.25 | 0.51 | 1.9 | 79% | 1.46e+06 RLU | DGL647 (bispecific antibody) chain 1: EVQLLESGGGLVQPGGSLRLSCAASGFTFSNAWMNWVRQAPGKGLEWVSSISSSSSYIYYADSVKGRFTISRDNSKNTLYLQMNSLRAEDTAVYYCARAVAAGGFFWGLDQWGQGTLVTVTSSGGGGSGGGGSGGGGSQSVLTQPPSASGTPGQRVTISCSGSRSNIGSNSVHWYQQLPGTAPKLLIYGNSNRPSGVPDRFSGSKSGTSASLAISGLRSEDEADYYCQSYDSSLNDHVVFGGGTKLTVLDKTHTCPPCPAPEAAGAPSVFLFPPKPKDTLMISRTPEVTCVVVDVSHEDPEVKFNWYVDGVEVHNAKTKPREEQYNSTYRVVSVLTVLHQDWLNGKEYKCKVSNKALPAPIEKTISKAKGQPREPQVCTLPPSRDELTKNQVSLSCAVKGFYPSDIAVEWESNGQPENNYKTTPPVLDSDGSFFLVSKLTVDKSRWQQGNVFSCSVMHEALHNHYTQKSLSLSPGWSHPQFEK chain 2: not shown |
| 0.08 | 0.17 | 0.8 | 0.24 | 0.33 | 0.77 | 78% | 1.45e+06 RLU | DGL648 (bispecific antibody) chain 1: EVQLLESGGGLVQPGGSLRLSCAASGFTFSNAWMNWVRQAPGKGLEWVSSISSSSSYIYYADSVKGRFTISRDNSKNTLYLQMNSLRAEDTAVYYCARAVAAGGLFWGLDQWGQGTLVTVTSSGGGGSGGGGSGGGGSQSVLTQPPSASGTPGQRVTISCSGSRSNIGSNSVHWYQQLPGTAPKLLIYGNSNRPSGVPDRFSGSKSGTSASLAISGLRSEDEADYYCQSYDSSLNDHVVFGGGTKLTVLDKTHTCPPCPAPEAAGAPSVFLFPPKPKDTLMISRTPEVTCVVVDVSHEDPEVKFNWYVDGVEVHNAKTKPREEQYNSTYRVVSVLTVLHQDWLNGKEYKCKVSNKALPAPIEKTISKAKGQPREPQVCTLPPSRDELTKNQVSLSCAVKGFYPSDIAVEWESNGQPENNYKTTPPVLDSDGSFFLVSKLTVDKSRWQQGNVFSCSVMHEALHNHYTQKSLSLSPGWSHPQFEK chain 2: not shown |
